The source of these data is paper PMC4513130, “Neuronal Calcium Sensor-1 Binds the D2 Dopamine Receptor and G-protein-coupled Receptor Kinase 1 (GRK1) Peptides Using Different Modes of Interactions” (The Journal of Biological Chemistry, 2015).

In assay [1] the target is D2 receptor peptide (D2R peptide) (human). As to the kind of experiment: crystal structure; NCS-1 (1 mM) with 2-fold excess of D2R peptide; 150 mM Tris-HCl pH 8.0, 8% ethylene glycol, 20% PEG 5000, 20 °C; 2.19 Å.
The target of assay [2] is GRK1 peptide (N terminus of G-protein-coupled receptor kinase 1, residues 1-25). Briefly: crystal structure; NCS-1 (1 mM) with 2-fold excess of GRK1 peptide; 0.12 M alcohols, 0.1 M HEPES/MOPS pH 7.5, 30% PEGMME 550 and PEG 20000, 20 °C; 2.30 Å.
GRK1 peptide (N terminus of G-protein-coupled receptor kinase 1, residues 1-25), sequence (Q15835 1-25): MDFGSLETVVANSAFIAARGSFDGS
Assay [3] has as its target D2 receptor peptide (D2R peptide) (human). As to the kind of experiment: ITC; 1 mM Ca2+/NCS-1 in the syringe titrated into 100 uM D2R peptide in the cell, 25 °C, 50 mM Tris-HCl, 50 mM NaCl, 5 mM CaCl2, pH 7.5; fitted to a sequential model and to a two-site nonsequential model with stoichiometry fixed at 1:2 NCS-1:peptide.

Rattus norvegicus neuronal calcium sensor-1 (NCS-1), full-length, Ca2+-bound, sequence (P62168 whole entry): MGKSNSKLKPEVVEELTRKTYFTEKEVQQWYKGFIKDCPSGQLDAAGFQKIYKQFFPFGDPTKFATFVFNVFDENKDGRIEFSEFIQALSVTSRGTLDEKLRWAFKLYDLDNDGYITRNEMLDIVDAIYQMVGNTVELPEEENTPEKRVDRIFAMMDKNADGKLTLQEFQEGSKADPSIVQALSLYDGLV

“Rattus norvegicus neuronal calcium sensor-1 (NCS-1), full-length, Ca2+-bound (from UniProt P62168 1-190) (natural protein)” registered a stoichiometry N in assay [1] of 2. In addition, the stoichiometry N in assay [2] is 1. In assay [3], this substance displayed a Kd, sequential binding model, first value of 43 µM; a Kd, sequential binding model, second value of 58 µM; a dH of -2.06 kcal/mol.
